# B1: LINE1-full (parent)
# chain: UACGUAGGUGGUUUUCCCCUGAUAGUGCUAAGGGGGCCUGGAAGUUUGGACUGGGCAGAGCUCAACACAGCGUGGCAAAGUGGCUGUGGCUAGACUGCCUCUCUGGAUUCCUCGUCACUCAGCAGGGCAUCUCUGAGAGAAAUGCC
# Variants of: B1
# Assay: self-cleavage, relative activity (ratio to wild type); higher = more cleavage; in vitro, sequencing; the parent is a self-cleaving ribozyme
row,Variant,self-cleavage
1,C16A U47G,0.75
2,C19U U96A,0.07
3,U20A G53U,1.1
4,U20C,1.37
5,U20A,1.21
6,U20A A92G,0.05
7,U20A A92U,0.92
8,C18U U102G,0.62
9,C18U U102C,1.61
10,U20A U134A,0.92
11,C19U G125U,1.81
12,U20A U119A,1.47
13,U20A U119C,1.05
14,U15C U73A,1.68
15,U15C U73C,1.8
16,U20A U115C,1.66
17,C18U A64U,0.19
18,U15G U39A,1.19
19,C16U A136U,1.29
20,C17U A59G,0.17
21,U15G U104C,0.89
22,C19U A141G,0.99
23,C19U A141U,1
24,C17A U115C,0.71

row,Variant,self-cleavage
1,C18U C71A,0.09
2,C19U U62A,0.07
3,C18U G144A,0.75
4,C18A U115C,1.85
5,U15G A31G,0.79
6,C19U A67U,0.1
7,U20C A42U,1.06
8,U20C A92C,0.14
9,C18A U81C,1.31
10,U20A C38A,1.01
11,C18U A65G,0.07
12,U20A U108G,0.53
13,U15C U100G,1.84
14,U15C U100A,0.62
15,C17U U115C,1.48
16,U20A U62C,0.06
17,C19U A78C,1.71
18,C19U A78U,1.72
19,C17G U102A,1.38
20,C17U A22U,1.21
21,C18U U100C,1.53
22,C17U U46A,0.72
23,C19A A138C,1.07
24,C19A A138G,0.72

row,Variant,self-cleavage
1,C19U A136G,0.95
2,U20A G44U,1.2
3,U15C U132C,1.47
4,U15C U132A,1.89
5,C17U U62C,0.04
6,U20A A67G,0.45
7,U20A A67U,0.13
8,C18U A136G,1.33
9,C16A U104A,0.47
10,C19U C51U,1.01
11,C19U A43U,1.41
12,U20A U91C,0.65
13,U20A A22G,0.69
14,U20A A22U,1.56
15,U20A U73A,1.5
16,U20A U73C,1.42
17,C17U A138U,1.29
18,C17U A138G,1.06
19,U20A G48U,1.42
20,U20A G48A,0.77
21,U20C A50G,0.66
22,C19A G72A,1.07
23,C18U G126U,1.62
24,C16U A77U,1.4

row,Variant,self-cleavage
1,C18U U26C,2.16
2,C16U A117G,0.57
3,C19A A124G,0.58
4,U20A U132A,1.61
5,C18U G60A,0.01
6,U20C A77U,1.02
7,U20C A77G,1.7
8,U15C U96C,0.23
9,U15C U96A,0.1
10,C17U A50G,0.59
11,U20A A121G,1.14
12,U20A A121U,1.55
13,C19U C84U,0.22
14,C19U U91C,0.62
15,U15G A78U,2.03
16,U20A A65G,0.11
17,U20A A142G,1.08
18,C16U U104C,1.03
19,C18U A42C,0.74
20,U20A G137A,1.29
21,C18U A129G,0.81
22,U15G A65G,0.1
23,C16U U96A,0.03
24,C16U U96C,0.11

row,Variant,self-cleavage
1,C18U,1.17
2,C18G,1.36
3,C18A,1.39
4,C18G A65U,0.28
5,U20A A117U,1.49
6,U20A A117C,1.77
7,U20A A117G,1.94
8,C18A C37G,0.99
9,U20A C28U,1.3
10,U20A U52G,1.58
11,U20A U52A,0.54
12,U20A U52C,1.77
13,U20A A24U,1.41
14,U20A U85C,0.09
15,C19U U73A,1.15
16,C19U U73C,0.85
17,C16U A92U,0.58
18,C16U A92G,0.2
19,C19U G89A,0.11
20,U15G U29C,1.05
21,C18A A42G,1.45
22,U20A A78U,1.34
23,U20A C99A,0.74
24,C19A A42G,0.33

row,Variant,self-cleavage
1,C17U A64G,0.22
2,U20A G36C,0.93
3,U20A G36A,0.94
4,C19U U104C,0.65
5,C19U U104A,1.07
6,U20A C110A,1.4
7,C19A U20C,1.04
8,C18U A43G,2.02
9,C18U U45C,0.57
10,C19A U104C,1.14
11,U20A G122U,1.59
12,U15C U81C,1.43
13,U15C U81A,2.14
14,C16U A67G,0.45
15,C19A U85G,0.13
16,U20A A138U,1.19
17,U15G A124U,0.58
18,C19U A69G,0.77
19,U15C U102A,0.19
20,U15C U102G,0.8
21,U15C U87C,0.33
22,C19G U52A,1.16
23,C18A G58U,0.07
24,C19U C38A,1.13

row,Variant,self-cleavage
1,C17U A79U,1.1
2,U20A G86A,0.18
3,C19U A129U,1.84
4,C19U A107U,1.5
5,C19U A107G,1.41
6,C19A U62C,0.28
7,C19U A121U,1.03
8,C19U A121G,0.42
9,C16A A121G,0.53
10,C16A A138G,1.65
11,U15G G126C,1.19
12,U20C A64G,0.41
13,U20C A64U,0.65
14,C17G A141G,0.47
15,C19U U115A,1.04
16,C18U A79G,1
17,C18U A78U,0.9
18,C18U A78G,0.88
19,C16U U134C,2.6
20,C16U U108C,1.72
21,U20A G72A,1.31
22,C16U U100A,0.32
23,C18G A124G,1.02
